The values below come from publication PMC3063151 (The Journal of neuroscience : the official journal of the …, 2011).

The data set “SEC” deals with the molecule itself. Description: SEC. For orientation: Size exclusion chromatography separates by hydrodynamic size, large species first.
The data set “crystal structure” deals with the molecule itself. Put plainly: crystal structure.

B1: GluN1-NTD-Y109C, purified (gel filtration and negative stain EM) (domain or fragment)
chain: not shown
A word on the stoichiometry N: it is a count of units in the complex or per binding partner. As for B1, the “stoichiometry N” value in the data set “SEC” is 2.

B2: GluN1-NTD (crystallised; from GluN1-NTD-8His) (domain or fragment)
chain: not shown
modifications: N-linked N-acetyl glucosamine at N61, N203, N239, N276 and N300 (EndoH treated)
B2: the binding result in the data set “crystal structure” is “binds”.
